Results: PMC10027685, “Frozen fresh blood plasma preserves the functionality of native human α2-macroglobulin” (Scientific Reports, 2023)

Target: the molecule itself
Assay: SEC-MALS; Superose 6 10/300 Increase column, buffer C (20 mM Tris–HCl, 150 mM sodium chloride, pH 7.4), 25 °C; native and MA-treated hα2M from FR and NF plasma

B1: native human α2-macroglobulin (natural protein, UniProt P01023 24-1474, looked up)
chain: SVSGKPQYMVLVPSLLHTETTEKGCVLLSYLNETVTVSASLESVRGNRSLFTDLEAENDVLHCVAFAVPKSSSNEEVMFLTVQVKGPTQEFKKRTTVMVKNEDSLVFVQTDKSIYKPGQTVKFRVVSMDENFHPLNELIPLVYIQDPKGNRIAQWQSFQLEGGLKQFSFPLSSEPFQGSYKVVVQKKSGGRTEHPFTVEEFVLPKFEVQVTVPKIITILEEEMNVSVCGLYTYGKPVPGHVTVSICRKYSDASDCHGEDSQAFCEKFSGQLNSHGCFYQQVKTKVFQLKRKEYEMKLHTEAQIQEEGTVVELTGRQSSEITRTITKLSFVKVDSHFRQGIPFFGQVRLVDGKGVPIPNKVIFIRGNEANYYSNATTDEHGLVQFSINTTNVMGTSLTVRVNYKDRSPCYGYQWVSEEHEEAHHTAYLVFSPSKSFVHLEPMSHELPCGHTQTVQAHYILNGGTLLGLKKLSFYYLIMAKGGIVRTGTHGLLVKQEDMKGHFSISIPVKSDIAPVARLLIYAVLPTGDVIGDSAKYDVENCLANKVDLSFSPSQSLPASHAHLRVTAAPQSVCALRAVDQSVLLMKPDAELSASSVYNLLPEKDLTGFPGPLNDQDNEDCINRHNVYINGITYTPVSSTNEKDMYSFLEDMGLKAFTNSKIRKPKMCPQLQQYEMHGPEGLRVGFYESDVMGRGHARLVHVEEPHTETVRKYFPETWIWDLVVVNSAGVAEVGVTVPDTITEWKAGAFCLSEDAGLGISSTASLRAFQPFFVELTMPYSVIRGEAFTLKATVLNYLPKCIRVSVQLEASPAFLAVPVEKEQAPHCICANGRQTVSWAVTPKSLGNVNFTVSAEALESQELCGTEVPSVPEHGRKDTVIKPLLVEPEGLEKETTFNSLLCPSGGEVSEELSLKLPPNVVEESARASVSVLGDILGSAMQNTQNLLQMPYGCGEQNMVLFAPNIYVLDYLNETQQLTPEIKSKAIGYLNTGYQRQLNYKHYDGSYSTFGERYGRNQGNTWLTAFVLKTFAQARAYIFIDEAHITQALIWLSQRQKDNGCFRSSGSLLNNAIKGGVEDEVTLSAYITIALLEIPLTVTHPVVRNALFCLESAWKTAQEGDHGSHVYTKALLAYAFALAGNQDKRKEVLKSLNEEAVKKDNSVHWERPQKPKAPVGHFYEPQAPSAEVEMTSYVLLAYLTAQPAPTSEDLTSATNIVKWITKQQNAQGGFSSTQDTVVALHALSKYGAATFTRTGKAAQVTIQSSGTFSSKFQVDNNNRLLLQQVSLPELPGEYSMKVTGEGCVYLQTSLKYNILPEKEEFPFALGVQTLPQTCDEPKAHTSFQISLSVSYTGSRSASNMAIVDVKMVSGFIPLKPTVKMLERSNHVSRTEVSSNHVLIYLDKVSNQTLSLFFTVLQDVPVRDLKPAIVKVYDYYETDEFAIAEYNAPCSKDLGNA
modifications: β-cysteinyl-γ-glutamyl thioester bond C972–Q975; glycosylated
notes: human α2-macroglobulin, secreted glycosylated 1451-residue protein; homotetramer, a dimer of disulfide-linked dimers; Authentic protein from the plasma of anonymous healthy donors; also called hα2M; native hα2M
  stoichiometry N: 4
